This note sets out measurements from patent US20230357857, “NUCLEIC ACID NANOSTRUCTURES WITH TUNABLE FUNCTIONAL STABILITY” (National University of Singapore, published 2023).

The target of this data set is Taq DNA polymerase (UniProt P19821 P19821:1-832). The data set is described as follows: inhibition; >80% signal with target; 1.5 mM MgCl2. The note with it: tags: Promega; partial duplex plus stabilizer hairpin.
Sequence of Taq DNA polymerase (P19821 whole entry, one chain of several): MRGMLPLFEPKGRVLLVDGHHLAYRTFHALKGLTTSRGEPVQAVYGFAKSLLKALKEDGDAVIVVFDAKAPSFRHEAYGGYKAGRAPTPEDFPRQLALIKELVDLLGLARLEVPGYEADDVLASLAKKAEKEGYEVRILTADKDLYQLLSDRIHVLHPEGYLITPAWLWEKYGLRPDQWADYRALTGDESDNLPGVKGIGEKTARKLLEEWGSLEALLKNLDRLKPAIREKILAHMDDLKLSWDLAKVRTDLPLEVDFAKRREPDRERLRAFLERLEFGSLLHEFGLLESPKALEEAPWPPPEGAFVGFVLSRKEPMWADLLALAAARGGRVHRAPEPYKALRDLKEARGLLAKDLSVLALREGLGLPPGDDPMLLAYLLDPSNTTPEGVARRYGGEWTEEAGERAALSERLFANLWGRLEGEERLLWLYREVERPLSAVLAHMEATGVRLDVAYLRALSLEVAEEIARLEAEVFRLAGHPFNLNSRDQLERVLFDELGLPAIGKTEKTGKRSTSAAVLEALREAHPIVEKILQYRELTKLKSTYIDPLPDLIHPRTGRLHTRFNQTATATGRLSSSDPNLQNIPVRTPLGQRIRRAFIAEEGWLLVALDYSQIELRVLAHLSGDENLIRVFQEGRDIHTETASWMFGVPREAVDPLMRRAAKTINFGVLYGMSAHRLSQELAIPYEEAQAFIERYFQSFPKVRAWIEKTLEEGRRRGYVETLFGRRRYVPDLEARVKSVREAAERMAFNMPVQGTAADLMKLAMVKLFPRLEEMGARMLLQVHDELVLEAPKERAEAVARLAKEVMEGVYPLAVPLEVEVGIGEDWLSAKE

B1: PCGEM1 Aptamer + PCGEM1 specific strand (dsDNA)
DNA 1: CCTCAGAAATCTCGGCAATGTACAGTATTGCCG
DNA 2: AGATTTCTGAGGGGAATT
On to B1, for which the activity is less than 10 % signal without target.

B2: NEAT1 Aptamer + NEAT1 specific strand (dsDNA)
DNA 1: TTAGCGCCAAACTAGCAATGTACAGTATTGCTA
DNA 2: GTTTGGCGCTAAACTCTT
In the case of B2, the activity was less than 10 % signal without target.

B3: ACTB Aptamer + ACTB specific strand (dsDNA)
DNA 1: ACGCAACTAAGTGACCAATGTACAGTATTGGTC
DNA 2: ACTTAGTTGCGTTACACC
In the case of B3, the activity is less than 10 % signal without target.

B4: GAS5 Aptamer + GAS5 specific strand (dsDNA)
DNA 1: TGTCTTCATGTCTAGCCAATGTACAGTATTGGCTA
DNA 2: GACATGAAGACAGTTCCT
With B4, the activity was less than 10 % signal without target.

B5: miR-1827 Aptamer + miR-1827 specific strand (dsDNA)
DNA 1: AGTAGATTGAATCGGACAATGTACAGTATTGTCCG
DNA 2: ATTCAATCTACTGCCTCA
Regarding B5, the activity is less than 10 % signal without target.

B6: GAPDH Aptamer + GAPDH specific strand (dsDNA)
DNA 1: TTCTCAAGACGGAATCAATGTACAGTATTGATT
DNA 2: CCGTCTTGAGAAACCTGC
Turning to B6, the activity was less than 10 % signal without target.

B7: miR-223-5p Aptamer + miR-223 specific strand (dsDNA)
DNA 1: ACAAGCTGAGTTCGCCAATGTACAGTATTGGCG
DNA 2: AACTCAGCTTGTCAAATA
With B7, the activity was less than 10 % signal without target.

B8: hnRNPA2B1 Aptamer + hnRNPA2B1 specific strand (dsDNA)
DNA 1: TGCCTATCAGTATGACCAATGTACAGTATTGGTCA
DNA 2: TACTGATAGGCAGTCTGG
Turning to B8, the activity was less than 10 % signal without target.
